Values of other authors, collected in patent publication US20250341526A1, “NOVEL DYES” (Quantum-Si Incorporated, priority 2024, published 2025).
Entries after “also recorded” stand apart in the source; their conditions may differ.

B1: PS370: ClpS amino acid recognition protein, SEQ ID NO: 3 (protein)
chain: MFNSLGTVLDPKKSKAKYPEARVIVLDDNFNTFQHVANCLLAIIPRMCEQRAWDLTIKVDKAGSAEVWRGNLEQAELYHEQLFSKGLTMAPIEKT
B2: PS404: ClpS amino acid recognition protein, SEQ ID NO: 27 (protein)
chain: MPVSVTAPQTKTKTKPKVERPKLYKVILVNDDFTPREFVVRVLKAEFRMSEDQAAKVMMTAHQRGVCVVAVFTRDVAETKATRATDAGRAKGYPLLFTTEPEE
B3: PS411: ClpS amino acid recognition protein, SEQ ID NO: 34 (protein)
chain: MTRPDAPEYDDDLAVEPAEPELARPPLYKVVLHNDDFTPMEFVVEVLQEFFNMDSEQAVQVMLAVHTQGKATCGIFTRDIAETKSYQVNEYARECEHPLMCDIEAAD
B4: PS369: ClpS amino acid recognition protein, SEQ ID NO: 2 (protein)
chain: MTSTLRARPARDTDLQHRPYPHYRIIVLDDDVNTFQHVVNCLVTFLPGMTRDQAWAMAQQVDGEGSAVVWTGPQEQAELYHVQLGNHGLTMAPLEPV
B5: PS414: ClpS amino acid recognition protein, SEQ ID NO: 37 (protein)
chain: MQAAGNEPPDPQNPGDVGNGGDGGNQDGSNTGVVVKTRTRTRKPAMYKVLMLNDDYTPMEFVVHVLERFFQKNREEATRIMLHVHRRGVGVCGVYTYEVAETKVTQVMDLARQNQHPLQCTIEKE
B6: PS397: ClpS amino acid recognition protein, SEQ ID NO: 25 (protein)
chain: MSDNEVAPKRKTRVKPKLERPRLYKVILVNDDYTPRDFVVMVLKAIFRMSEEAGYRVMMTAHKLGTSVVVVCARDIAETKAKEATDLGKEAGFPLMFTTEPEE
B7: PS417: ClpS amino acid recognition protein, SEQ ID NO: 40 (protein)
chain: MSNLDTDVLIDEKVKVVTTEPEKYRVILLNDDVTPMDFVINILVSIFKHSTDTAKDLTLKIHKEGSAIVGVYTYEIAEQKGIEATNESRQHGFPLQVKIERENTL
B8: PS410: ClpS amino acid recognition protein, SEQ ID NO: 33 (protein)
chain: MGDDDQSSREGEGDVAFQTADPELKRPSLYRVVLLNDDYTPMEFVVHILEQFFAMNREKATQVMLAVHTQGKGVCGVYTKDIAETKAALVNDYSRENQHPLLCEVEELDDESR
B9: PS398: ClpS amino acid recognition protein, SEQ ID NO: 26 (protein)
chain: MPLKAQNRSIVGRRDEWPPPTTQSSSETKSESKRVSDTGADTKRKTKTVPKVEKPRLYKVILVNDDYTPREFVLVVLKAVFRMSEDQGYKVMITAHQKGSCVVAVYTRDIAETKAKEAVDLAKEIGFPLMFRTEPEE
B10: PS409: ClpS amino acid recognition protein, SEQ ID NO: 32 (protein)
chain: MPARLTDIEGEPNTDPVEDVLLADPELKKPQMYAVVMYNDDYTPMEFVVDVLQNHFKHTLDSAISIMLAIHQQGKGIAGIYPKDIAETKAQTVNRKARQAGYPLLSQIEPQG
B11: PS405: ClpS amino acid recognition protein, SEQ ID NO: 28 (protein)
chain: MVSIGAATVACAEGRPIFSGYFDWLAAMPETVTVPRTRLRPKTERPKLHKVILVNDDYTPREFVVTVLKGEFHMSEDQAQRVMITAHRRGVCVVAVFTKDVAETKATRASDAGRAKGYPLQFTTEPEE
B12: PS412: ClpS amino acid recognition protein, SEQ ID NO: 35 (protein)
chain: MATKREGSTLLEPTAAKVKPPPLYKVLLLNDDYTPMEFVVLVLKKFFGIDQERATQIMLKVHTEGVGVCGVYPRDIAHTKVEQVVDFARQHQHPLQCTMEES
B13: PS415: ClpS amino acid recognition protein, SEQ ID NO: 38 (protein)
chain: MALPETRTKIKPDVNIKEPPNYRVIYLNDDKTSMEFVIGSLMQHFSYPQQQAVEKTEEVHEHGSSTVAVLPYEMAEQKGIEVTLDARAEGFPLQVKIEPAER
B14: PS421: ClpS amino acid recognition protein, SEQ ID NO: 44 (protein)
chain: MTTPNKRPEFEPEIGLEDEVGEPRKYKVLLHNDDYTTMDFVVQVLIEVFRKSETEATHIMLTIHEKGVGTCGIYPAEVAETKINEVHTRARREGFPLRASMEEV
B15: PS420: ClpS amino acid recognition protein, SEQ ID NO: 43 (protein)
chain: MSDYSNQISQAGSGVAEDASITLPPERKVVFYNDDFTTMEFVVDVLVSIFNKSHSEAEELMQTVHQEGSSVVGVYTYDIAVSRTNLTIQAARKNGFPLRVEVE
B16: PS422: ClpS amino acid recognition protein, SEQ ID NO: 45 (protein)
chain: MTQIKPQTIPDTDVISQTQSDWQMPDLYAVIMHNDDYTTMDFVVFLLNAVFDKPIEQAYQLMMQIHQTGRAVVAILPYEIAEMKVDEATSLAEQEQFPLFISIEQA
B17: PS406: ClpS amino acid recognition protein, SEQ ID NO: 29 (protein)
chain: MPDATTTPRTKTLTRTARPPLHKVILVNDDFTPREFVVRLLKAEFRTTGDEAQRIMITAHMKGSCVVAVFTREIAESKATRATETARAEGFPLLFTTEPEE
B18: PS419: ClpS amino acid recognition protein, SEQ ID NO: 42 (protein)
chain: MEKEQSLCKEKTHVELSEPKHYKVVFHNDDFTTMDFVVKVLQLVFFKSQLQAEDLTMKIHLEGSATAGIYSYDIAQSKAQKTTQMAREEGFPLRLTVEPEDN
B19: PS423: ClpS amino acid recognition protein, SEQ ID NO: 46 (protein)
chain: MAPTPAGAAVLDKQQQRRHKHASRYRVLLHNDPVNTMEYVVESLRQVVPQLSEQDAIAVMVEAHNTGVGLVIVCDIEPAEFYCEQLKTKGLTSSIEPED
B20: PS396: ClpS amino acid recognition protein, SEQ ID NO: 24 (protein)
chain: MSDNDVALKPKIKSKPKLERPKLYKVILVNDDFTPREFVIAVLKMVFRMSEETGYRVMLTAHRLGTSVVVVCARDIAETKAKEAVDFGKEAGFPLMFTTEPEE
B21: PS407: ClpS amino acid recognition protein, SEQ ID NO: 30 (protein)
chain: MPSNKRQMCLSDIKNSFNESGIVDWHISPRLANEPSEEGDSDLAVQTVPPELKRPPLYAVVLLNDDYTPMEFVIEILQQYFAMNLDQATQVMLTVHYEGKGVAGVYPRDIAETKANQVNNYARSQGHPLLCQIEPKD
B22: PS413: ClpS amino acid recognition protein, SEQ ID NO: 36 (protein)
chain: MMKQCGSYFLIKAVQDFKPLSKHRSDTDVITETKIQVKQPKLYTVIMYNDNYTTMDFVVYVLVEIFQHSIDKAYQLMMQIHESGQAAVALLPYDLAEMKVDEVTALAEQESYPLLTTIEPA
B23: PS418: ClpS amino acid recognition protein, SEQ ID NO: 41 (protein)
chain: MSDHNIDHDTSVAVHLDVVVREPPMYRVVLLNDDFTPMEFVVELLMHFFRKTAEQATQIMLNIHHEGVGVCGTYPREIAETKVAQVHQHARTNGHPLKCRMEPS
B24: PS408: ClpS amino acid recognition protein, SEQ ID NO: 31 (protein)
chain: MTDPPSKGREDVDLATRTKPKTQRPPLYKVLLLNDDFTPMEFVVHILERLFGMTHAQAIEIMLTVHRKGVAVVGVFSHEIAETKVAQVMELARRQQHPLQCTMEKE
B25: PS416: ClpS amino acid recognition protein, SEQ ID NO: 39 (protein)
chain: MTSQTDTLVKPNIQPPSLFKVIYINDSVTTMEFVVESLMSVFNHSADEATRLTQLVHEEGAAVVAILPYELAEQKGMEVTLLARNNGFPLAIRLEPAV

test system: amino acid at a terminal position of a polypeptide; conditions: Table 1, ClpS proteins; amino acid at terminal position; inferred from literature and/or demonstrated by the inventors; cited from earlier work

Molecule	Binding Pref.
B1	F, L
B2	F, Y, W
B3	F, Y, W, L
B4	F, Y, W, L
B5	F, Y, W, L
B6	F, Y, W
B7	F, Y, W
B8	F, W, L
B9	F, W
B10	F, Y, W, L
B11	F, Y, W
B12	F, Y, W, L
B13	F, Y, W
B14	F, Y, W, L
B15	F, Y, W, L
B16	F, Y, W, L
B17	F, Y, W
B18	F, Y, W, L
B19	F, Y, W
B20	F, W
B21	F, Y, W, L
B22	F, Y, W, L
B23	F, Y, W, L
B24	F, Y, W, L
B25	F, Y, W, L

same assay, conditions: Table 2; amino acid at terminal position (phosphotyrosine also internal); inferred from literature and/or demonstrated by the inventors; cited from earlier work

Molecule	Binding Pref.
Rattus norvegicus p62 protein: amino acid recognition protein, SEQ ID NO: 124	K, R, H,; also recorded: W, F, Y
H. sapiens p62 fragment 126-180: amino acid recognition protein, SEQ ID NO: 122	K, R, H,; also recorded: W, F, Y
H. sapiens p62 fragment 1-180: amino acid recognition protein, SEQ ID NO: 121	K, R, H,; also recorded: W, F, Y
